Source: the supplement of paper PMC9112550, “Optimization of the antimicrobial peptide Bac7 by deep mutational scanning” (BMC Biology, 2022)

Each sequence was assayed on Escherichia coli TOP10 (assay: shrunken log2 fold change of peptide-encoding DNA abundance (4.5 h post-induction vs induction); higher = less antimicrobial activity (less host growth inhibition)). Conditions: time post-induction: 4.5 h; library: site-saturation at positions 5, 18, 19, 20.
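Note: peptides expressed intracellularly from a pBAD plasmid library in pooled LB shake-flask culture, induced with 0.3% L-arabinose, DNA abundance read by NGS, three biological replicates, DESeq2 with apeglm shrinkage.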

| Sequence | shrunken log2 fold change |
| --- | --- |
| RRIRARPPRLPRPRPRPQELPRP | 0.0199 |
| RRIRKRPPRLPRPRPRPRCIPRP | -0.187 |
| RRIRDRPPRLPRPRPRPCDFPRP | 0.0384 |
| RRIRFRPPRLPRPRPRPWPSPRP | -0.0611 |
| RRIRCRPPRLPRPRPRPSWFPRP | -0.147 |
| RRIRDRPPRLPRPRPRPPHPPRP | 0.235 |
| RRIRNRPPRLPRPRPRPQIQPRP | -0.214 |
| RRIRNRPPRLPRPRPRPAKQPRP | -0.0201 |
| RRIRPRPPRLPRPRPRPDPAPRP | 0.326 |
| RRIRRRPPRLPRPRPRPHLSPRP | 0.112 |
| RRIRERPPRLPRPRPRPRGRPRP | 0.358 |
| RRIRWRPPRLPRPRPRPSKEPRP | -0.267 |
| RRIRPRPPRLPRPRPRPCNDPRP | -0.456 |
| RRIRGRPPRLPRPRPRPAPDPRP | 1.07 |
| RRIRYRPPRLPRPRPRPPWVPRP | -0.209 |
| RRIRYRPPRLPRPRPRPGQPPRP | 0.0516 |
| RRIRIRPPRLPRPRPRPCKMPRP | -0.0175 |
| RRIRERPPRLPRPRPRPHSDPRP | -0.0192 |
| RRIRERPPRLPRPRPRPQMKPRP | -0.568 |
| RRIRTRPPRLPRPRPRPINIPRP | -0.208 |
| RRIRMRPPRLPRPRPRPDMEPRP | 0.00931 |
| RRIRRRPPRLPRPRPRPCAIPRP | 3.08 |
| RRIRWRPPRLPRPRPRPDRWPRP | 0.827 |
| RRIRFRPPRLPRPRPRPKVIPRP | -0.212 |
| RRIRCRPPRLPRPRPRPLPDPRP | 0.33 |

| Sequence | shrunken log2 fold change |
| --- | --- |
| RRIRGRPPRLPRPRPRPYVTPRP | 0.0521 |
| RRIRNRPPRLPRPRPRPMKCPRP | 0.0131 |
| RRIRKRPPRLPRPRPRPIAMPRP | 0.147 |
| RRIRMRPPRLPRPRPRPCKHPRP | 0.0196 |
| RRIRKRPPRLPRPRPRPYVNPRP | -0.526 |
| RRIRFRPPRLPRPRPRPNHRPRP | -0.306 |
| RRIRTRPPRLPRPRPRPIDDPRP | -0.498 |
| RRIRTRPPRLPRPRPRPGQWPRP | 0.0938 |
| RRIRHRPPRLPRPRPRPRIVPRP | 0.00411 |
| RRIRVRPPRLPRPRPRPAAMPRP | 0.347 |
| RRIRSRPPRLPRPRPRPFRIPRP | 0.0361 |
| RRIRRRPPRLPRPRPRPKVEPRP | -0.0016 |
| RRIRNRPPRLPRPRPRPATNPRP | -0.0513 |
| RRIRIRPPRLPRPRPRPILSPRP | -0.421 |
| RRIRWRPPRLPRPRPRPQISPRP | -0.22 |
| RRIRFRPPRLPRPRPRPRHLPRP | -0.0297 |
| RRIRKRPPRLPRPRPRPMSGPRP | -0.211 |
| RRIRWRPPRLPRPRPRPRHIPRP | -0.0148 |
| RRIRCRPPRLPRPRPRPHNHPRP | -0.625 |
| RRIRIRPPRLPRPRPRPFNDPRP | -0.0749 |
| RRIRYRPPRLPRPRPRPYEMPRP | -0.104 |
| RRIRPRPPRLPRPRPRPAMMPRP | -0.214 |
| RRIRARPPRLPRPRPRPLQPPRP | 0.583 |
| RRIRYRPPRLPRPRPRPSVAPRP | -0.183 |
| RRIRDRPPRLPRPRPRPHNDPRP | -0.201 |

| Sequence | shrunken log2 fold change |
| --- | --- |
| RRIRGRPPRLPRPRPRPRRFPRP | 0.402 |
| RRIRRRPPRLPRPRPRPARFPRP | 0.709 |
| RRIRLRPPRLPRPRPRPLQSPRP | 0.0468 |
| RRIRARPPRLPRPRPRPYIPPRP | -0.805 |
| RRIRRRPPRLPRPRPRPSSHPRP | -0.0976 |
| RRIRNRPPRLPRPRPRPNIAPRP | -0.352 |
| RRIRYRPPRLPRPRPRPRHTPRP | -0.108 |
| RRIRNRPPRLPRPRPRPPGYPRP | 0.39 |
| RRIRSRPPRLPRPRPRPAERPRP | 0.0522 |
| RRIRRRPPRLPRPRPRPWMKPRP | -0.196 |
| RRIRWRPPRLPRPRPRPYYGPRP | -0.0686 |
| RRIRYRPPRLPRPRPRPKMFPRP | -0.845 |
| RRIRHRPPRLPRPRPRPYLDPRP | 0.00552 |
| RRIRGRPPRLPRPRPRPATTPRP | 0.871 |
| RRIRFRPPRLPRPRPRPLFGPRP | 0.0395 |
| RRIRWRPPRLPRPRPRPLLYPRP | 0.0998 |
| RRIRLRPPRLPRPRPRPLTMPRP | -0.427 |
| RRIRPRPPRLPRPRPRPCNMPRP | 0.0288 |
| RRIRRRPPRLPRPRPRPKQFPRP | -0.00581 |
| RRIRTRPPRLPRPRPRPDRLPRP | 0.0294 |
| RRIRERPPRLPRPRPRPIPWPRP | -0.345 |
| RRIRVRPPRLPRPRPRPLEKPRP | 0.158 |
| RRIRTRPPRLPRPRPRPRHRPRP | 0.0476 |
| RRIRPRPPRLPRPRPRPQWFPRP | -0.0872 |
| RRIRHRPPRLPRPRPRPEVYPRP | -0.0062 |

| Sequence | shrunken log2 fold change |
| --- | --- |
| RRIRPRPPRLPRPRPRPIWWPRP | 0.665 |
| RRIRERPPRLPRPRPRPMICPRP | -0.115 |
| RRIRGRPPRLPRPRPRPCWEPRP | -0.000921 |
| RRIRERPPRLPRPRPRPRADPRP | 0.0209 |
| RRIRMRPPRLPRPRPRPITHPRP | 0.0509 |
| RRIRARPPRLPRPRPRPAAMPRP | 0.856 |
| RRIRPRPPRLPRPRPRPYHPPRP | -0.246 |
| RRIRARPPRLPRPRPRPVEVPRP | 0.236 |
| RRIRHRPPRLPRPRPRPYLLPRP | -0.611 |
| RRIRRRPPRLPRPRPRPSPKPRP | 0.127 |
| RRIRMRPPRLPRPRPRPGDDPRP | 1.96 |
| RRIRMRPPRLPRPRPRPIFSPRP | 0.0637 |
| RRIRGRPPRLPRPRPRPYHGPRP | -0.459 |
| RRIRLRPPRLPRPRPRPWPNPRP | -0.0032 |
| RRIRLRPPRLPRPRPRPQAEPRP | 0.0388 |
| RRIRGRPPRLPRPRPRPCAQPRP | 1.07 |
| RRIRIRPPRLPRPRPRPHMNPRP | -0.845 |
| RRIRTRPPRLPRPRPRPYPWPRP | -0.178 |
| RRIRLRPPRLPRPRPRPNDHPRP | -0.43 |
| RRIRGRPPRLPRPRPRPDPAPRP | 1.06 |
| RRIRVRPPRLPRPRPRPEDLPRP | 0.084 |
| RRIRVRPPRLPRPRPRPRMPPRP | 0.278 |
| RRIRVRPPRLPRPRPRPPEHPRP | -0.219 |
| RRIRPRPPRLPRPRPRPAIEPRP | -0.0623 |
| RRIRYRPPRLPRPRPRPGMRPRP | 0.561 |

| Sequence | shrunken log2 fold change |
| --- | --- |
| RRIRYRPPRLPRPRPRPLVMPRP | -0.372 |
| RRIRMRPPRLPRPRPRPTCAPRP | 0.827 |
| RRIRMRPPRLPRPRPRPDIPPRP | -0.0804 |
| RRIRFRPPRLPRPRPRPRDEPRP | 0.278 |
| RRIRQRPPRLPRPRPRPLICPRP | -0.0973 |
| RRIRARPPRLPRPRPRPQRGPRP | 0.468 |
| RRIRRRPPRLPRPRPRPRVEPRP | 0.662 |
| RRIRGRPPRLPRPRPRPVSFPRP | 0.392 |
| RRIRSRPPRLPRPRPRPLRIPRP | -0.0455 |
| RRIRHRPPRLPRPRPRPLRQPRP | -0.0125 |
| RRIRFRPPRLPRPRPRPFHNPRP | -0.622 |
| RRIRPRPPRLPRPRPRPMIKPRP | -0.696 |
| RRIRMRPPRLPRPRPRPQTLPRP | 0.0245 |
| RRIRLRPPRLPRPRPRPDYRPRP | -0.0122 |
| RRIRFRPPRLPRPRPRPPKWPRP | 0.286 |
| RRIRIRPPRLPRPRPRPWCKPRP | -0.284 |
| RRIRQRPPRLPRPRPRPQHWPRP | 0.0488 |
| RRIRNRPPRLPRPRPRPRQMPRP | 0.0821 |
| RRIRTRPPRLPRPRPRPDFLPRP | -0.169 |
| RRIRTRPPRLPRPRPRPVFPPRP | -0.339 |
| RRIRDRPPRLPRPRPRPGVKPRP | 0.0336 |
| RRIRQRPPRLPRPRPRPITDPRP | 0.00271 |
| RRIRERPPRLPRPRPRPCAYPRP | -1.05 |
| RRIRHRPPRLPRPRPRPWMWPRP | -0.0064 |
| RRIRSRPPRLPRPRPRPKGSPRP | 0.0118 |

| Sequence | shrunken log2 fold change |
| --- | --- |
| RRIRRRPPRLPRPRPRPIWKPRP | -0.184 |
| RRIRRRPPRLPRPRPRPSCNPRP | -0.112 |
| RRIRPRPPRLPRPRPRPRCRPRP | 0.217 |
| RRIRSRPPRLPRPRPRPGGIPRP | 0.274 |
| RRIRKRPPRLPRPRPRPSMPPRP | 0.0159 |
| RRIRIRPPRLPRPRPRPDHWPRP | 0.0629 |
| RRIRKRPPRLPRPRPRPAGMPRP | 0.042 |
| RRIRWRPPRLPRPRPRPARQPRP | 0.0282 |
| RRIRLRPPRLPRPRPRPRTNPRP | 0.113 |
| RRIRFRPPRLPRPRPRPMVQPRP | -0.106 |
| RRIRRRPPRLPRPRPRPHENPRP | -0.019 |
| RRIRLRPPRLPRPRPRPRSDPRP | 0.126 |
| RRIRYRPPRLPRPRPRPQCFPRP | -0.00674 |
| RRIRERPPRLPRPRPRPLYMPRP | -0.748 |
| RRIRPRPPRLPRPRPRPVHGPRP | 0.0843 |
| RRIRDRPPRLPRPRPRPCGPPRP | 0.0478 |
| RRIRKRPPRLPRPRPRPPFAPRP | 0.745 |
| RRIRIRPPRLPRPRPRPCFFPRP | -0.503 |
| RRIRMRPPRLPRPRPRPCAQPRP | -0.0823 |
| RRIRRRPPRLPRPRPRPISIPRP | -0.0402 |
| RRIRTRPPRLPRPRPRPVEAPRP | 0.0918 |
| RRIRDRPPRLPRPRPRPAWCPRP | 0.183 |
| RRIRKRPPRLPRPRPRPWMFPRP | -0.000428 |
| RRIRMRPPRLPRPRPRPMSNPRP | 0.0851 |
| RRIRCRPPRLPRPRPRPDFAPRP | 0.115 |
